Read-outs that look alike come from different tables or passages of the source.
Legend:
[1] = biological target: T1, recombinant human ROR2-extracellular domain (ROR2-ECD) (human, UniProt Q01974 34-403); assay: KinExA 3200 kinetic exclusion assay; free scFv captured on particles coated with recombinant ROR2 protein, soluble ROR2 as titrant
T1 construct: also called recombinant ROR2-extracellular protein; recombinant ROR2 protein
Experimental: FIGS. 12A and 12B. Affinity measurement and binding specificity of the 6E6 single chain variable fragment (scFv) for human ROR2. Analysis was performed using a KinExA 3200 instrument. (FIG. 12A) The proportion of the 6E6 anti-human ROR2 scFv bound to particles coated with recombinant ROR2 protein (y-axis) in the presence of increasing molar (M) concentration of soluble ROR2 competitor (x-axis) is shown. (FIG. 12B) Illustration of the 95% confidence interval for the measured Kd of 6E6 scFv for binding to recombinant human ROR2. (FIG. 12C) Binding of the 6E6 scFv to ROR2 was assessed by flow cytometric staining and analysis of K562 (ROR2 positive) and JEKO (ROR2 negative) cells. Cells were stained on ice for 20 minutes with ~1 ug/ml of 6E6 anti-human ROR2 scfv, washed, stained for an additional 20 minutes on ice with phycoerythrin (PE)-conjugated anti-human IgG1 antibody, washed and analyzed by flow cytometry. Shaded histograms depict the relative fluorescence intensity (x axis) of viable cells, as determined by light scatter characteristics, stained with 6E6 scfv compared to viable cells stained with the anti-human IgG1-PE antibody only (open histograms).

[2] = biological target: T2, recombinant human ROR2 with aspartic acid 354 replaced by the glutamic acid of mouse ROR2 (human, UniProt Q01974 34-403); assay: dot blot; recombinant protein on nylon membrane, probed with the mAb, HRP anti-mouse IgG
T2 construct: also called human ROR2 D354E

[3] = biological target: T3, recombinant human ROR2 with histidine 349 replaced by the arginine of mouse ROR2 (human, UniProt Q01974 34-403); assay: as above
T3 construct: also called human ROR2 H349R

[4] = biological target: T1, recombinant human ROR2-extracellular …; assay: KinExA 3200 kinetic exclusion assay; free mAb captured on particles coated with ROR2 protein, soluble ROR2 as titrant
Experimental: (§1) FIGS. 4A and 4B. Affinity measurement of binding of the 6E6 and 4G9 mAb to recombinant ROR2 protein. (FIG. 4A) Analysis was performed using a KinExA 3200 instrument. The proportion of anti-human ROR2 mAb bound to particles coated with ROR2 protein (y-axis) in the presence of increasing molar (M) concentration of soluble ROR2 competitor (x-axis) is shown for 6E6 (upper panel) and 4G9 (lower panel). (FIG. 4B) Illustration of the 95% confidence interval for the measured Kd of 6E6 (upper panel) and 4G9 (lower panel) for binding to human ROR2.
(§2) Applicants assessed binding specificity and relative affinities of each mAb using recombinant ROR2-extracellular protein in an ELISA assay, in which binding was measured using decreasing/limiting amounts of ROR2 protein and assessed in combination with decreasing concentrations of each of the four mAb (FIG. 3). Higher absorbance values for 6E6 and 4G9 at both lower ROR2 protein amounts and lower concentrations of mAb, indicate these mAb have higher affinities compared to 5C11 and 5G3. Equilibrium dissociation constants (Kd) were measured in a kinetic exclusion assay (KinExA) that measures the equilibrium binding affinity and kinetics between unmodified molecules in solution.

[5] = biological target: T1, recombinant human ROR2-extracellular …; assay: kinetic exclusion assay (KinExA), soluble recombinant ROR2
Experimental: as §1, §2

[6] = biological target: T1, recombinant human ROR2-extracellular …; assay: as above; remark: listed apart in the source
Experimental: as §1, §2

h1-160 aa = biological target: T4, h1-160 aa (human;mouse, UniProt Q01974;Q9Z138); assay: dot blot; recombinant protein on nylon membrane, probed with the mAb, HRP anti-mouse IgG
T4 construct: N-terminal part of the extracellular portion;C-terminal part of the extracellular portion; also called chimeric human/mouse recombinant ROR2 extracellular construct with the first 160 amino acids of human ROR2
Description: (§3) FIG. 5. Identification of the binding regions of anti-human ROR2 mAb by assessment of binding to chimeric […] recombinant ROR2 protein. […] Each recombinant protein was transferred onto nylon membrane, probed with the 6E6, 4G9, 5C11, 5G3 or anti-his tag mAb, and detected with an anti-mouse IgG antibody conjugated with horse radish peroxidase, as shown in the right panel. The […] and 5C11 mAbs bind to ROR2 recombinant proteins that contain the human kringle domain.
(§4) Applicants developed a series recombinant human/mouse hybrid proteins that isolate specific domains of the human ROR2 protein. These recombinant proteins were used to identify the specific binding domains that each of the four mAb target (FIG. 5). The 6E6 and 5C11 mAb bind to the Kringle domain of human, but not mouse, ROR2. […] None of the four mAb bind mouse ROR2.

hCRD = biological target: T5, hCRD (mouse;human, UniProt Q9Z138;Q01974); assay: as above
T5 construct: N-terminal part of the extracellular portion;cysteine rich domain (CRD);C-terminal part of the extracellular portion; also called chimeric human/mouse recombinant ROR2 extracellular construct that contains the cysteine rich domain of human ROR2
Description: as §3, §4

[7] = biological target: T6, mouse ROR2 (recombinant extracellular portion) (mouse, UniProt Q9Z138 34-403); assay: as above
Description: as §3, §4

h1-111 aa = biological target: T7, h1-111 aa (human;mouse, UniProt Q01974;Q9Z138); assay: as above
T7 construct: N-terminal part of the extracellular portion;C-terminal part of the extracellular portion; A tag is not described, but the blot was also probed with an anti-his tag mAb
Description: as §3, §4

hKringle [8] = biological target: T8, hKringle (mouse;human, UniProt Q9Z138;Q01974); assay: as above
T8 construct: N-terminal part of the extracellular portion;C-terminal part of the extracellular portion with the Kringle domain; also called chimeric human/mouse recombinant ROR2 extracellular construct that contains the Kringle domain of human ROR2

[9] = biological target: T6, mouse ROR2 (recombinant extracellular …); assay: as above; remark: listed apart in the source
[10] = biological target: T9, recombinant human ROR2 with methionine 386 replaced by the valine of mouse ROR2 (human, UniProt Q01974 34-403); assay: as above
T9 construct: also called human ROR2 M386V

hKringle [11] = biological target: T8, hKringle; assay: as above; remark: listed apart in the source
Description: as §3, §4

[12] = biological target: T1, recombinant human ROR2-extracellular …; assay: ELISA
[13] = biological target: T10, human ROR2 expressed on cells (human, UniProt Q01974 34-943); assay: flow cytometry on ROR2-expressing cells
T10 construct: Full-length human ROR2 entry; endogenous on cell lines and PDX cells, transfected in MCF7-ROR2; also called ROR2 surface antigen; human ROR2 on K562, BR1936 PDX, MCF7-ROR2 and other ROR2-expressing cell lines
T10 sequence (Q01974 34-943 limits assumed): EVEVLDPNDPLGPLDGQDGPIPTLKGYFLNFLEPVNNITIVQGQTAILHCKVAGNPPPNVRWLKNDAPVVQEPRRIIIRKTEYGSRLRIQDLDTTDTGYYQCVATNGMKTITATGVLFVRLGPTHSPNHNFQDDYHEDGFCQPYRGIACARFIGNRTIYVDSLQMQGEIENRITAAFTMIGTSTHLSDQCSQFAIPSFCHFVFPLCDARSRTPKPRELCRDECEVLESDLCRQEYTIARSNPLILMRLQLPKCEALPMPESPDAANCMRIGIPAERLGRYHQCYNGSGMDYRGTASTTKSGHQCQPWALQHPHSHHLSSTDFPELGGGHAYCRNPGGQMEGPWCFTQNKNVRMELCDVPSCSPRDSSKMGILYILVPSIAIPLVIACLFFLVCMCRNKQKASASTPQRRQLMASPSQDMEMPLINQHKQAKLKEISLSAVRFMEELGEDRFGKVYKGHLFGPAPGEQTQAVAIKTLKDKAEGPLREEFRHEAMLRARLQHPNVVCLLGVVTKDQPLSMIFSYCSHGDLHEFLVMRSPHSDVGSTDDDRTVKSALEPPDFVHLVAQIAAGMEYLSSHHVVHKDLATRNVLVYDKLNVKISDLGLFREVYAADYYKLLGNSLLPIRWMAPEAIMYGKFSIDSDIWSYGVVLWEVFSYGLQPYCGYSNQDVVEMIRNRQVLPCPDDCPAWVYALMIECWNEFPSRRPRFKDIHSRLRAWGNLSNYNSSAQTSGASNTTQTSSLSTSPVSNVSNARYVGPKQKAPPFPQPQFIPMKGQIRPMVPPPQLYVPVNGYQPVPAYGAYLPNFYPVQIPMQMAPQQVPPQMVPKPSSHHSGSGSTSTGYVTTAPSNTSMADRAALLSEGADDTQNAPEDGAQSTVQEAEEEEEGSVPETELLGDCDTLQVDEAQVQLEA

T1 sequence (Q01974 34-403 limits assumed): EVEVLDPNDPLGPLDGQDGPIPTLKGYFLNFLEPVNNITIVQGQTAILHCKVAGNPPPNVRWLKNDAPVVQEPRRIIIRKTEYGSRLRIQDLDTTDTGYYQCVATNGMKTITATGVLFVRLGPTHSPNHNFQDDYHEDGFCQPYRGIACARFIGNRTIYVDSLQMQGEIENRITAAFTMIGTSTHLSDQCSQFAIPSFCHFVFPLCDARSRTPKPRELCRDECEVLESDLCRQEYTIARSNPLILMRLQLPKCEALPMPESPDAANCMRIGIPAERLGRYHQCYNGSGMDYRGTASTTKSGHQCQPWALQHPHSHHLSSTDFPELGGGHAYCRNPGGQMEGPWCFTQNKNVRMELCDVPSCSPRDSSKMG
T6 sequence (Q9Z138 other isoform, or with tags, fused parts or gaps limits assumed): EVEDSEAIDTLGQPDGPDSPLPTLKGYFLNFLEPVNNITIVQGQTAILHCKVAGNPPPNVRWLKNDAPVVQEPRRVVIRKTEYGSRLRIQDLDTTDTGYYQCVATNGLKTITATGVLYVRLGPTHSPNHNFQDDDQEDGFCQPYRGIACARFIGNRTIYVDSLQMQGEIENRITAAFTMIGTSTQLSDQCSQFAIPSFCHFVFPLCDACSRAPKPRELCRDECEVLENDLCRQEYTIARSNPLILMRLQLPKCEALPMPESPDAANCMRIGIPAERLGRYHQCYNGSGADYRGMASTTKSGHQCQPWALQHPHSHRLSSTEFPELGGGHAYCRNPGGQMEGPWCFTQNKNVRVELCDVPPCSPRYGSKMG
T5 sequence (Q9Z138 other isoform, or with tags, fused parts or gaps limits assumed): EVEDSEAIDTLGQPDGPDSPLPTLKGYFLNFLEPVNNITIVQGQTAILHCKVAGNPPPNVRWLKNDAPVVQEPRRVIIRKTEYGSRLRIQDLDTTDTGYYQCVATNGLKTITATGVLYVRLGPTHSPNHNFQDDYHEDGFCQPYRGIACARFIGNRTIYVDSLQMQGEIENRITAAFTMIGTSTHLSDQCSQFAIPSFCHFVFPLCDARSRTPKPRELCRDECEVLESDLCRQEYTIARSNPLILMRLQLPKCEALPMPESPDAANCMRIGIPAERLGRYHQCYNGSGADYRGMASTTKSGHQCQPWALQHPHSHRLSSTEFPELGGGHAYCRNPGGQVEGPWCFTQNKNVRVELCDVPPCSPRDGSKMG
T2 sequence (Q01974 34-403 D354E limits assumed): as the sequence (Q01974 34-403 limits assumed) above, with D321E counted along it
T4 sequence (Q01974 other isoform, or with tags, fused parts or gaps limits assumed): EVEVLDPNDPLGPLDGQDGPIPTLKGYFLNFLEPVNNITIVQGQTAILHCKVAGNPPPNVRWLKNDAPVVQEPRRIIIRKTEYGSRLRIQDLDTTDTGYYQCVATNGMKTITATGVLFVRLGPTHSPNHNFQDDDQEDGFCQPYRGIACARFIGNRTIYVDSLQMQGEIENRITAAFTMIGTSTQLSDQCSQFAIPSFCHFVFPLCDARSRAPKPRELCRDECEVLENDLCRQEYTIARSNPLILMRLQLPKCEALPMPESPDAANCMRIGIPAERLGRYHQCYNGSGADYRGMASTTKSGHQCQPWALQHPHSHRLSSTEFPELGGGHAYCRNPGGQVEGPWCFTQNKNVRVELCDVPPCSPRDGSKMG
T8 sequence (Q9Z138 other isoform, or with tags, fused parts or gaps limits assumed): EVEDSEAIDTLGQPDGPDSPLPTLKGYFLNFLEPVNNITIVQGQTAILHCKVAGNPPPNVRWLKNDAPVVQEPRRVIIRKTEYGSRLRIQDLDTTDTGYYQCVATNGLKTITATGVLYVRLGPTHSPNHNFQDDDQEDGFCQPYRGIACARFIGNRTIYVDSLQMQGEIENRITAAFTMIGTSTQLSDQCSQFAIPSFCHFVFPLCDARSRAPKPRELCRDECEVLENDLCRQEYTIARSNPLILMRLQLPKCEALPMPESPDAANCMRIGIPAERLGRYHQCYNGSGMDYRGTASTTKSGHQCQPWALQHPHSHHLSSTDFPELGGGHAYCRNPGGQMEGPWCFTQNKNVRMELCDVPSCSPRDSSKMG
T3 sequence (Q01974 34-403 H349R limits assumed): as the sequence (Q01974 34-403 limits assumed) above, with H316R counted along it
T7 sequence (Q01974 other isoform, or with tags, fused parts or gaps limits assumed): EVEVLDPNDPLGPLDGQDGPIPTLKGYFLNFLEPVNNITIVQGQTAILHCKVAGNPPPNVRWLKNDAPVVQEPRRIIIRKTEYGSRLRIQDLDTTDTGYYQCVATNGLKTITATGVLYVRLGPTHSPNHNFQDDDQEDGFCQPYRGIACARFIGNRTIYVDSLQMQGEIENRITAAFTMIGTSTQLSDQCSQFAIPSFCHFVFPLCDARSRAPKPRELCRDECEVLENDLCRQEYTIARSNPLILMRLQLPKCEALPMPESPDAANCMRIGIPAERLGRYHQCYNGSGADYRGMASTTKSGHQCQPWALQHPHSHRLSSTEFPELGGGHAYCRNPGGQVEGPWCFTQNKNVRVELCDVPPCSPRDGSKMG
T9 sequence (Q01974 other isoform, or with tags, fused parts or gaps limits assumed): as the sequence (Q01974 34-403 limits assumed) above, with M353V counted along it

B1: 6E6 single chain variable fragment (scFv) (scFv)
scFv: DIVMTQSHKFMSTSIGDRVSITCKASQDVGHYVAWYQQKPGQSPKLLIYWASTRHTGVPDRFTGSGSGTDFTLTISNVQSEDLADYFCQQYNIYPWTFGGGSKLAIKGSTSGSGKPGSGEGSTKGEVQLVESGGDLVKPGGSLKLSCAASGFTFSNYGMSWVRQTPDKRLEWVATISSGGGYTHYVDSVKGRFTISRDNANHILYLQMSSLNSEDTAMYYCARHPRDFSYAMDYWGQGTSVTVSSEFLFPPKPKDTLMISRTPEVTCVVVDVSHEDPEVKFNWYVDGVEVHNAKTKPREEQYNSTYRVVSVLTVLHQDWLNGKEYKCKVSNKALPAPIEKTISKAKGQPREPQVYTLPPSREEMTKNQVSLTCLVKGFYPSDIAVEWESNGQPENNYKTTPPVLDSDGSFFLYSKLTVDESRWQQGNVFSCSVMHEALHNHYTQKSLSLSPGK
notes: scFv fused to CH2-CH3 of human IgG1; the leader is left out here; also called 6E6 scFv; 6E6 anti-human ROR2 scFv
Kd [1]: 0.0737 nM

B2: 6E6 anti-human ROR2 monoclonal antibody (antibody, IgG1, V domains shown)
VH: EVQLVESGGDLVKPGGSLKLSCAASGFTFSNYGMSWVRQTPDKRLEWVATISSGGGYTHYVDSVKGRFTISRDNANHILYLQMSSLNSEDTAMYYCARHPRDFSYAMDYWGQGTSVTVSS
VL: DIVMTQSHKFMSTSIGDRVSITCKASQDVGHYVAWYQQKPGQSPKLLIYWASTRHTGVPDRFTGSGSGTDFTLTISNVQSEDLADYFCQQYNIYPWTFGGGSKLAIK
notes: Used conjugated with Alexa647 in flow cytometry and with pHrodo in the internalisation assay; also called 6E6 mAb
binding result [2]: no binding | binding result [3]: no binding | Kd [4]: 0.0556 nM | Kd [5]: < 0.1 nM | Kd [6]: ~0.1 nM | binding result (h1-160 aa): no binding | binding result (hCRD): no binding | binding result [7]: no binding | binding result (h1-111 aa): no binding

B3: 4G9 anti-human ROR2 monoclonal antibody (antibody, IgG2a, V domains shown)
VH: QVQLQQSGAELVRPGASVKLSCKALGYTFTDYEMHWVKQTPVHGLEWIGAIHPGSGGTAYNQKFKGKATLTADKSSSTAYMELSRLTSEDSAVYYCTRRRPRFYGMDYWGQGTSVTVSS
VL: DIVMTQAAPSVPVTPGESVSISCRSSKSLLHSNGNTYLYWFLQRPGQSPQLLIYRMSNLASGVPDRFSGSGSGTAFTLRISRVEAEDVGVYYCMQHLEYPLTVGAGTKLELK
notes: Used conjugated with Alexa647 in flow cytometry and with pHrodo in the internalisation assay; also called 4G9 mAb
binding result (hKringle [8]): no binding | binding result [9]: no binding | Kd [4]: 1.9 nM | Kd [5]: ~1.9 nM | Kd [6]: ~2 nM | binding result (hCRD): no binding

B4: 5C11 anti-human ROR2 monoclonal antibody (antibody, IgG1, V domains shown)
VH: EVQLVESGGDLVKPGGSLKLSCAASGFTFSNYGMSWVRQTPDKRLEWVATISSGGGSTYYPDSVKGRFTISRDNAKNSLYLQMSSLKSEDTAMYYCARHPYDYGYYFDYWGQGTTLTVSS
VL: DILLTQSPDILSVSPGERVSFSCRASQSIGTSIHWYQQRTNGSPRLLIKYASESISGIPSRFSGSGSGTDFTLSINSVESEDIADYYCQQSDSWPFPFGSGTKLEKK
notes: also called 5C11 mAb
binding result [10]: no binding | binding result [2]: no binding | binding result [3]: no binding | binding result [9]: no binding | Kd [5]: > 40 nM | binding result (h1-160 aa): no binding | binding result (hCRD): no binding | binding result (h1-111 aa): no binding

B5: 5G3 anti-human ROR2 monoclonal antibody (antibody, IgG2a, V domains shown)
VH: EVQLVESGGGLVQPKGSLKLSCAASGFTFNTYAMNWVRQAPGKGLEWVARIRSKSNNYATYYADSVKDRFTISRDDSQSMLHLQMNNLKTEDTAMYYCVRHGSSLYYAMDYWGQGTSVTVSS
VL: DIQMTQSPSSLSASLGERVSLTCRASQEISGYLGWLQQKPDGTIKRLIYAASTLDSGVPKRFSGSRSGSAYSLTISSLESEDFADYYCLQYASYPYTFGGGTKLEIK
notes: also called 5G3 mAb
Kd [5]: > 40 nM | binding result (hCRD): no binding | binding result (hKringle [11]): no binding | binding result [7]: no binding

B6: 4G9 single chain variable fragment (scFv) (scFv)
scFv: DIVMTQAAPSVPVTPGESVSISCRSSKSLLHSNGNTYLYWFLQRPGQSPQLLIYRMSNLASGVPDRFSGSGSGTAFTLRISRVEAEDVGVYYCMQHLEYPLTVGAGTKLELKGSTSGSGKPGSGEGSTKGQVQLQQSGAELVRPGASVKLSCKALGYTFTDYEMHWVKQTPVHGLEWIGAIHPGSGGTAYNQKFKGKATLTADKSSSTAYMELSRLTSEDSAVYYCTRRRPRFYGMDYWGQGTSVTVSSEFLFPPKPKDTLMISRTPEVTCVVVDVSHEDPEVKFNWYVDGVEVHNAKTKPREEQYNSTYRVVSVLTVLHQDWLNGKEYKCKVSNKALPAPIEKTISKAKGQPREPQVYTLPPSREEMTKNQVSLTCLVKGFYPSDIAVEWESNGQPENNYKTTPPVLDSDGSFFLYSKLTVDESRWQQGNVFSCSVMHEALHNHYTQKSLSLSPGK
notes: scFv fused to CH2-CH3 of human IgG1; the leader is left out here; also called 4G9 scFv
binding result [12]: binds | binding result [13]: binds

From patent US20230192846A1 (University of California, published 2023)
